Here are results for four substances from US20210253716A1.

Assay [1] has as its target human ACVR1 extracellular domain expressed with a C-terminal mouse IgG2a Fc tag (human). Briefly: SPR (Biacore), mAb captured, 37 C. A general note: In SPR one partner is held on a chip, and binding of the other changes the refractive index at the surface.
Assay [2] addresses human ACVR1 extracellular domain expressed with a C-terminal myc-myc-hexahistidine tag (human). The assay can be described thus: SPR (Biacore), mAb captured, 37 C.
The target in assay [3] is mouse ACVR1 extracellular domain expressed with a C-terminal myc-myc-hexahistidine tag (mouse). Briefly: SPR (Biacore), mAb captured, 37 C.
Sequence of mouse ACVR1 extracellular domain expressed with a C-terminal myc-myc-hexahistidine tag (mouse) (chain, as listed by the source limits assumed): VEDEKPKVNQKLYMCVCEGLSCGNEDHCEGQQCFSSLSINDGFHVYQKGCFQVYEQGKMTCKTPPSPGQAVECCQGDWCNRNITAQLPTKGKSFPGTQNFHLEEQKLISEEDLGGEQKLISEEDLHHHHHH
Assay [4] addresses human ACVR1 extracellular domain expressed with a C-terminal mouse IgG2a Fc tag (human). The assay can be described thus: SPR (Biacore), mAb captured, 25 C.
Assay [5] deals with human ACVR1 extracellular domain expressed with a C-terminal myc-myc-hexahistidine tag (human). The assay can be described thus: SPR (Biacore), mAb captured, 25 C.
Sequence of human ACVR1 extracellular domain expressed with a C-terminal myc-myc-hexahistidine tag (human) (chain, as listed by the source limits assumed): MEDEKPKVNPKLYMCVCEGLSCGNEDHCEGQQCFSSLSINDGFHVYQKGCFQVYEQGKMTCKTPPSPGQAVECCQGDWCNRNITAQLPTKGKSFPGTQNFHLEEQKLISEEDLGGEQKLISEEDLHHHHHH
Assay [6] has as its target mouse ACVR1 extracellular domain expressed with a C-terminal myc-myc-hexahistidine tag (mouse). The assay can be described thus: SPR (Biacore), mAb captured, 25 C.
Assay [7] deals with full length wild type human ACVR1 on HEK293/BRE-luc/hACVR1-wild type cells (human) (UniProt Q04771). Briefly: flow cytometry, 66.6 nM antibody, HEK293/hACVR1-wt cells.
Sequence of full length wild type human ACVR1 on HEK293/BRE-luc/hACVR1-wild type cells (human) (Q04771 21-509): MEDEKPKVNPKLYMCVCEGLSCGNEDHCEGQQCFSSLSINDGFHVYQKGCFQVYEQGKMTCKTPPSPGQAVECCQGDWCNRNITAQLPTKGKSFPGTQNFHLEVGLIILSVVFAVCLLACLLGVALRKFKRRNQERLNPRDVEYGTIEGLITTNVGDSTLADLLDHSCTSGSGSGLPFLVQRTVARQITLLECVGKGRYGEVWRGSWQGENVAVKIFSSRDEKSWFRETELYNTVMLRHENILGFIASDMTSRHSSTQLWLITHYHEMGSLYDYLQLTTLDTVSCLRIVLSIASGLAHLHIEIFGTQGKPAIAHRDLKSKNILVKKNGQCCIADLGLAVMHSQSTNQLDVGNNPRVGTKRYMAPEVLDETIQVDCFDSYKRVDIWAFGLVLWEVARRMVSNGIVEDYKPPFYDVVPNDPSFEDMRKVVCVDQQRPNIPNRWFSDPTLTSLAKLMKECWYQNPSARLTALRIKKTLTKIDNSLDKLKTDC
Assay [8] deals with full length human ACVR1 (R206H) on HEK293/BRE-luc/hACVR1-R206H-clone H2 cells (human) (UniProt Q04771). The assay can be described thus: flow cytometry, 70 nM antibody, HEK293/hACVR1-R206H cells.
Sequence of full length human ACVR1 (R206H) on HEK293/BRE-luc/hACVR1-R206H-clone H2 cells (human) (Q04771 21-509 R206H): as the sequence (Q04771 21-509) above, with R186H counted along it
For assay [9] the target is unchanged. Briefly: flow cytometry, 66.6 nM antibody, HEK293/hACVR1-R206H cells.
For assay [10] the target is unchanged. Briefly: cell-based or functional assay.
For assay [11], the target named is full length wild type human ACVR1 on HEK293/BRE-luc/hACVR1-wild type cells (human) (UniProt Q04771). Briefly: flow cytometry, secondary antibody alone (66.6 nM run), HEK293/hACVR1-wt cells. In general terms: A flow cytometer gives signals particle by particle.
Assay [12] has as its target full length human ACVR1 (R206H) on HEK293/BRE-luc/hACVR1-R206H-clone H2 cells (human) (UniProt Q04771). The assay can be described thus: flow cytometry, secondary antibody alone (70 nM run), HEK293/hACVR1-R206H cells.
Assay [13] shares this target. Briefly: flow cytometry, secondary antibody alone (66.6 nM run), HEK293/hACVR1-R206H cells.

Sequence of human ACVR1 extracellular domain expressed with a C-terminal mouse IgG2a Fc tag (human) (chain, as listed by the source limits assumed): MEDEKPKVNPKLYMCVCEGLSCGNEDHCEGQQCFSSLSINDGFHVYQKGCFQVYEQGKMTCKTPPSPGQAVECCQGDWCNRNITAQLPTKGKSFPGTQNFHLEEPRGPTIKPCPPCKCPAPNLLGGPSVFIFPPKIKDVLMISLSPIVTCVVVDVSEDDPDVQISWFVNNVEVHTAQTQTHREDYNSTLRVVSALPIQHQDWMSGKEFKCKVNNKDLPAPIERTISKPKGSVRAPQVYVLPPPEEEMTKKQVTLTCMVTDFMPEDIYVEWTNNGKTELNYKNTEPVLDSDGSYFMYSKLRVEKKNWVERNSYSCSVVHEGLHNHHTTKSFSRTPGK

“hIgG4 isotype control antibody (REGN1945)”: the 100 nM Ag Bound (RU) was -1 RU in assay [1] and -2 RU in assay [4]. Also, the 900 nM or 100 nM Ag Bound (RU) is 0 RU in assay [2], 0 RU in assay [3], 1 RU in assay [5] and -2 RU in assay [6]. In addition, the MFI - Normalized to Unstained Control came to 3 fold in assay [7], 3 fold in assay [8] and 1 fold in [9].

In assay [10], “human Bone Morphogenetic Protein 7 (R&D System 354-BP/C) (from UniProt P18075 293-431) (ligand)” gave an EC50 [M], BRE-luc reporter activation by ligand (run with 2 nM hBMP7) of 1.22e-09 M and an EC50 [M], BRE-luc reporter activation by ligand (run with 3 nM hBMP7) of 2.97e-10 M.

“Alexa Fluor-647 conjugated secondary antibody (Jackson ImmunoResearch, anti-human #109-607-003), alone”: the MFI - Normalized to Unstained Control in assay [11], in assay [12] and in assay [13] was 1 fold throughout.

Regarding “human Activin A (R&D System 338-AC) (from UniProt P08476 311-426) (ligand)”, the EC50 [M], BRE-luc reporter activation by ligand in [10] came to 3.33e-10 M.
